Source: US20190112365A1 (EISAI R AND D MANAGEMENT, published 2019)

How the values were obtained:
[1] = target: T1, Peptide antigen CNIKHVPGGGSVQIVYKPVD (human, conjugated to BSA in the ELISA (to KLH via the N-terminal cysteine in the immunogen)); assay: ELISA screening of hybridoma clones
T1 construct: also called original immunization peptide; immunizing Tau peptide
T1 peptide: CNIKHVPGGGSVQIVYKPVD
Method: One month after the boost immunization, antisera were collected from the mice and antibody titers assessed by ELISA to measure immunoreactivity against the original immunizing Tau peptide and both 2N4R and 1N3R recombinant Tau proteins. Briefly, either 150 ng of Peptide antigen conjugated to BSA or 50 ng of 2N4R or 1N3R recombinant Tau protein (Enzo Life Sciences, cat. no's BML-SE321 and BML-SE323 respectively) were used to coat each well of a 96-well plate (Costar cat. no. 2797) in 10 mM phosphate buffer, pH 7.0 at 37° C. for 1 hour. Plates were blocked in a final concentration of 1% BSA diluted in PBS at room temperature for 30 minutes. […] Following additional wash steps, antibody binding was detected by addition of 3,3′,5,5′-Tetramethylbenzidine (TMB) substrate. The enzymatic reaction was stopped with an equal volume of 2M H₂SO₄ and the well optical density was determined using a platereader at wavelength 450 nm.
Once mice with a high antibody titer had been determined, cells were isolated from the medial iliac lymph nodes and fused using polyethylene glycol with mouse myeloma SP2 cells to generate hybridomas. […] To give an approximation of relative binding, culture supernatant that was positive in the peptide ELISA and either recombinant protein, 2N4R or 1N3R, or both, were then evaluated in a competitive ELISA system. […]

[2] = target: T2, Tau peptide KDNIKHVSGGGSVQI (human); assay: epitope substitution scanning on peptide chip
T2 construct: Variant peptide of the substitution scan
T2 peptide: KDNIKHVSGGGSVQI
Description: FIG. 4 illustrates the results of the murine 7G6 antibody epitope substitution scanning of the peptide sequence […] (SEQ ID NO: 26), corresponding to amino acids 294 to 308 of the human 2N4R Tau protein. Each amino acid position of the peptide was replaced by every naturally occurring amino acid possible, printed onto a glass chip, and probed with the ms7G6 antibody. FIG. 4 illustrates the results for select peptides (SEQ ID NOs 38-78, respectively). While ms7G6 antibody binding allows some variation in the second position (valine) of SEQ ID NO: 79, antibody binding is completely dependent on the proline residue of SEQ ID NO: 79. No binding of antibody 7G6 to […] (SEQ ID NO: 59) was observed. The latter is the sequence present in Tau P301S mutant protein.
The ms7G6 anti-Tau antibody was diluted to a concentration of 1 μg/mL in PBS (pH 7.4) containing 0.05% Tween 20 and 10% Rockland blocking buffer (MB-070). The diluted antibody was incubated on the chip for 16 hours at 4° C. with shaking at 140 rpm. Primary antibody was removed and the chip was washed in PBS (pH 7.4)/0.05% Tween 20. […] Fluorescence images were acquired on the LI-COR Odyssey™ Imaging System and the microarray data was finally analyzed using the PepSlide™ Analyser software.

[3] = target: T3, Human Tau 2N4R, wild type, recombinant full length (human, UniProt P10636 2-758); assay: SPR BIAcore T100, mAb captured by protein A/G, Tau injected
T3 construct: Full length 2N4R isoform; monomer in SPR and ELISA; heparin-induced aggregates or seeds in the functional assays; also called Tau441; Tau-441
Method: (§1) Kinetic analysis of the interaction of the anti-Tau mouse monoclonal antibodies generated in Example 1 with human wild type Tau (2N4R) and the equivalent P301S mutant Tau protein was conducted using a BIAcore™ T100 instrument. Recombinant human full length Tau proteins were expressed in E. coli and then purified by Cellufine™ phosphate affinity chromatography followed by ammonium sulfate precipitation and reverse phase HPLC chromatography.
(§2) Purified antibodies from hybridomas were captured by protein A/G immobilized on a CM5 sensor chip (GE Healthcare). The wild type and P301S Tau proteins were then injected onto the sensor chip at five different concentrations and the affinity (equilibrium dissociation constant, KD) was calculated according to the manufacturer's instruction.

[4] = target: T4, P301S mutant human 2N4R Tau, recombinant full length (human, UniProt P10636 2-758); assay: as above
T4 construct: The equivalent P301S mutant of 2N4R Tau; also called P301S-2N4R Tau; P301S Tau
Method: as §1, §2

[5] = target: T5, HVPGG site of Tau (15-mer array peptides containing HVPGG) (human); assay: peptide microarray; HVPGG site of the second repeat region against HKPGG (repeat region 3)
T5 peptide: HVPGG
Method: (§3) The diluted antibody was incubated on the chip for 16 hours at 4° C. with shaking at 140 rpm. Primary antibody was removed and the chip was washed in PBS (pH 7.4)/0.05% Tween 20. Wash buffer was removed and goat anti-mouse IgG (H+L) DyLight™680 (1:5000) and an anti-HA tag DyLight™ 800 (1:2000) in the same buffer as the primary antibody was then incubated for 45 minutes at room temperature on the chip. Detection antibody was removed and the chip was washed once again as previously. Fluorescence images were acquired on the LI-COR Odyssey™ Imaging System and the microarray data was finally analyzed using the PepSlide™ Analyser software.

[6] = target: T5, HVPGG site of Tau (15-mer array …); assay: peptide microarray; HVPGG site of the second repeat region against HQPGG (repeat region 1)
Method: as §3

T4 sequence (P10636 other isoform, or with tags, fused parts or gaps P301S P301S limits assumed): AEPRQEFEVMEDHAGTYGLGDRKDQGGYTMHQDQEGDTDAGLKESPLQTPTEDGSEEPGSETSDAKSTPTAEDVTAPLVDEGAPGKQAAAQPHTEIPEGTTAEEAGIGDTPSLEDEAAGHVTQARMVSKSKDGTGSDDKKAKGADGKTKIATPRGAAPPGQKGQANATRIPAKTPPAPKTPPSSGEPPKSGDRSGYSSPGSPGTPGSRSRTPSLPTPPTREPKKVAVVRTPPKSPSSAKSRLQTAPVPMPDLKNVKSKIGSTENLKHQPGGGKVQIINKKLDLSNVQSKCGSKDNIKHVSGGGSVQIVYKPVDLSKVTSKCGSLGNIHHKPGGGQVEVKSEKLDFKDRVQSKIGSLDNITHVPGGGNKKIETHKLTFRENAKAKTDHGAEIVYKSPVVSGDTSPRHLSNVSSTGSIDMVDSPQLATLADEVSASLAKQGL
T3 sequence (P10636 other isoform, or with tags, fused parts or gaps limits assumed): as the sequence (P10636 other isoform, or with tags, fused parts or gaps P301S P301S limits assumed) above, with S300P counted along it

B1: murine 7G6 antibody (antibody, mouse IgG2b, V domains shown)
VH: QVQLLQPGAELVKPGASVIMSCKASGYTFTTYWITWVKQRPGQGLEWIGDIYPGSSICNYNEKFKSKATLTVDTSSSTAYMQLNSLTSEDSAVYYCAREDGYDAWFAYWGQGTLVTVSA
VL: DVLMTQTPLSLPVSLGDQASISCRSSQSILHSNGNTYLEWYLQKPGQSPKLLICKVSNRFSGVPDRFSGSGSGTDFTLKISRVEAEDLGVYYCFQGSHVPFTFGSGTKLEIK
notes: Mouse IgG2b, kappa, purified from hybridoma; also called ms7G6; mouse 7G6
- binding result [1]: binds
- binding result [2]: no binding (tested: 1 µg/mL)
- Kd [3]: 52 pM
- Kd [4]: 570 pM
- fold preference in binding (average signal intensities) [5]: 38 fold
- fold preference in binding (average signal intensities) [6]: 41 fold
